Results on three molecules are retold here after article doi:10.1101/2025.06.09.658552.

The target of experiment [1] is alpha/beta-tubulin (Saccharomyces cerevisiae) (UniProt P09733). Particulars: cited from earlier work.
For experiment [2] the target is unchanged. Particulars: cited from earlier work. This is another data set of the same source.
In experiment [3] the target is biotinylated polymerization-blocked yeast αβ-tubulin, LR1 (β: T175R,V179R) (yeast) (UniProt P09733). In words: BLI; biotinylated polymerization-blocked tubulin immobilised on streptavidin (SA) biosensors, OctetR8; TOG2 2.3 to 200 nM in solution; 90 mM PIPES, 10 mM NaCl, 1 mM MgCl2, 1 mM EGTA, 1 mM GTP, 0.1% BSA, 0.005% triton X-100; association 300 s, dissociation 300 s; 1:1 model, global kinetic fit and steady-state amplitudes. For orientation: BLI is a label-free optical method that tracks binding on a fibre tip over time.

Values joined by “and” are separate entries in the source; they are usually repeats but may differ in a detail not shown here. Equal values may be shown once. Read-outs that look alike come from different tables or passages of the source.

The Kd is a measure of binding affinity in units of concentration. Turning to Stu2 TOG2 (from UniProt P46675), the dissociation constant (Kd) in experiment [1] is 160 nM.
Regarding Stu2 TOG1 (from UniProt P46675), the Kd in experiment [2] is 70 nM.

B1: Stu2-TOG2 (318–560) (domain or fragment)
chain: MLPEETILDKLPKDFQERITSSKWKDRVEALEEFWDSVLSQTKKLKSTSQNYSNLLGIYGHIIQKDANIQAVALAAQSVELICDKLKTPGFSKDYVSLVFTPLLDRTKEKKPSVIEAIRKALLTICKYYDPLASSGRNEDMLKDILEHMKHKTPQIRMECTQLFNASMKEEKDGYSTLQRYLKDEVVPIVIQIVNDTQPAIRTIGFESFAILIKIFGMNTFVKTLEHLDNLKRKKIEETVKTL
In general, koff refers to the first-order rate constant of dissociation. Low readings indicate a long-lived complex, high ones a short-lived complex. As a reminder, the kon is a measure of how fast the partners come together. On to B1, for which, in experiment [3], the Kd is 8.9 nM and 9.6 nM; the koff amounted to 0.03 s⁻¹; the association rate constant (kon) turned out to be 3.2e+06 M⁻¹ s⁻¹.
